The target in this experiment is T1, activated C1s–CCP1–CCP2–SP (human, UniProt P09871 292-688).
T1 construct: human complement C1s, C-terminal domains CCP1, CCP2 and serine protease (SP); Cleaved by C1r into two chains (confirmed by reducing SDS-PAGE); Tag removal is inferred: only the c-Myc S632A form 'was not subjected to His-TEV cleavage'; also called wildtype C1s–CCP1–CCP2–SP
T1 sequence: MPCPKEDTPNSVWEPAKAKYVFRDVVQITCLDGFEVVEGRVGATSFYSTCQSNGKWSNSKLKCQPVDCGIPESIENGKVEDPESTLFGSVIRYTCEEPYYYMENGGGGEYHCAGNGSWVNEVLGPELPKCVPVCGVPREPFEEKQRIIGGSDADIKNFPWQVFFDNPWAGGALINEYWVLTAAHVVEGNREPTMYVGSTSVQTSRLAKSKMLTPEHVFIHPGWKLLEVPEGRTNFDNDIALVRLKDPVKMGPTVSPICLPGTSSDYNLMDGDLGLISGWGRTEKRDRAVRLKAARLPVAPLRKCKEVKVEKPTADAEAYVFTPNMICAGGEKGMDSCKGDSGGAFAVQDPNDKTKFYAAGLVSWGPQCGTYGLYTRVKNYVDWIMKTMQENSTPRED
Put plainly: SPR; Elp truncation amine-coupled to a CMD200 chip; multicycle twofold injection series of C1s enzyme or activated C1s–CCP1–CCP2–SP constructs from 200 nM; HBS-T Ca2+ (10 mM Hepes pH 7.3, 140 mM NaCl, 0.005% Tween-20, 5 mM CaCl2), 30 ul/min; K_(D, kin) from a kinetic and K_(D, ss) from a steady-state 1:1 (Langmuir) fit; triplicate. The note with it: both partners purified. (SPR reads the build-up and loss of mass on a sensor chip optically.)

In general, Kd refers to the free concentration of one partner at which half of the binding sites on the other are occupied at equilibrium, for simple one-to-one binding. A high value points to a looser complex.

B1: ElpB_(182–378) (domain or fragment)
chain: QERKAKAEKEAKEKAERQKQEEQQKRKAEKEREEQRKEAEKRQVDNEIRTLTGKIDEINRNIDVIKEQTSVGAQGVIDRITGPVYDDFTDGNKAIYKTWGDLEDDNDEGLGKLLKELSDTRHNLRTKLNEGNKAYIIDTRSTEPQLKENVSVSEIKSDLDELKSKLEEVKEYLEDKDNFEEIKEYVAGSEDNYDEED
notes: ElpB (ErpB) of B. burgdorferi, residues 182-378; also called C-terminal domain of ElpB; not shown: His6 (from the vector pT7HMT), N-terminal, cleaved; c-Myc (from the vector pT7HMT), N-terminal, cleaved
B1: the Kd stood at 360 ± 17 nM.
